These results are taken from PMC2018643 (Nucleic Acids Research, 2007).

The data set concerns the molecule itself. Kind of data set: SEC.

B1: His(6)-Rrp47p (natural protein, S. cerevisiae, UniProt P38801 1-184, looked up)
chain: MEDIEKIKPYVRSFSKALDELKPEIEKLTSKSLDEQLLLLSDERAKLELINRYAYVLSSLMFANMKVLGVKDMSPILGELKRVKSYMDKAKQYDNRITKSNEKSQAEQEKAKNIISNVLDGNKNQFEPSISRSNFQGKHTKFENDELAESTTTKIIDSTDHIRKASSKKSKRLDKVGKKKGGKK
As to B1, the “stoichiometry N” value is 6.

By stoichiometry N is commonly meant the number of molecules, sites or subunits per partner or assembly.
